Values belong to the sequence of their own block, whether it stands above or below them.
Columns and labels:
[1] = target: HLA-B*15:02; assay: IEDB peptide-MHC binding, purified MHC/competitive/fluorescence; filed as Kd, often an IC50 or EC50 that approximates it; ≥ and ≤ were set here for values at or beyond the usual limits of such assays
[2] = target: HLA-A*02:01; assay: IEDB peptide-MHC binding, purified MHC/competitive/radioactivity; ≥ and ≤ were set here for values at or beyond the usual limits of such assays
[3] = target: HLA-A*02:03; assay: IEDB peptide-MHC binding, purified MHC/direct/fluorescence; filed as Kd, often an IC50 or EC50 that approximates it; ≥ and ≤ were set here for values at or beyond the usual limits of such assays; conditions: source organism: Ebola virus Yambio0403
[4] = target: HLA-A*02:12; assay: as above; conditions: source organism: Ebola virus Yambio0403
[5] = target: HLA-A*02:16; assay: as above; conditions: source organism: Ebola virus Yambio0403
[6] = target: HLA-A*02:19; assay: as above; conditions: source organism: Ebola virus Yambio0403
[7] = target: HLA-A*03:01; assay: as above
[8] = target: HLA-A*68:02; assay: as above; conditions: source organism: Ebola virus Yambio0403
[9] = target: HLA-B*08:01; assay: as above
[10] = target: HLA-C*14:02; assay: as above; conditions: source organism: Zaire ebolavirus
[11] = target: HLA-A*02:01; assay: IEDB peptide-MHC binding, purified MHC/competitive/fluorescence; filed as Kd, often an IC50 or EC50 that approximates it; ≥ and ≤ were set here for values at or beyond the usual limits of such assays
[12] = target: HLA-A*26:01; assay: as above; conditions: source organism: Zaire ebolavirus
[13] = target: HLA-A*69:01; assay: as above; conditions: source organism: Zaire ebolavirus
[14] = target: HLA-B*27:05; assay: as above
[15] = target: HLA-B*35:01; assay: as above
[16] = target: HLA-B*39:01; assay: as above
[17] = target: HLA-B*46:01; assay: as above; conditions: source organism: Zaire ebolavirus
[18] = target: HLA-B*51:01; assay: as above; conditions: source organism: Zaire ebolavirus
[19] = target: HLA-B*57:01; assay: as above; conditions: source organism: Zaire ebolavirus
[20] = target: HLA-C*03:03; assay: IEDB peptide-MHC binding, purified MHC/direct/fluorescence; filed as Kd, often an IC50 or EC50 that approximates it; ≥ and ≤ were set here for values at or beyond the usual limits of such assays
[21] = target: HLA-A*24:03; assay: IEDB peptide-MHC binding, purified MHC/competitive/fluorescence; filed as Kd, often an IC50 or EC50 that approximates it; ≥ and ≤ were set here for values at or beyond the usual limits of such assays; conditions: source organism: Escherichia coli str. K-12 substr. MG1655
[22] = target: HLA-C*12:03; assay: IEDB peptide-MHC binding, purified MHC/direct/fluorescence; filed as Kd, often an IC50 or EC50 that approximates it; ≥ and ≤ were set here for values at or beyond the usual limits of such assays
[23] = target: HLA-C*15:02; assay: as above; conditions: source organism: Mycobacterium tuberculosis H37Ra
[24] = target: HLA-B*58:01; assay: IEDB peptide-MHC binding, purified MHC/competitive/fluorescence; filed as Kd, often an IC50 or EC50 that approximates it; ≥ and ≤ were set here for values at or beyond the usual limits of such assays; conditions: source organism: Shigella boydii CDC 3083-94
[25] = target: HLA-A*01:01; assay: IEDB peptide-MHC binding, purified MHC/direct/fluorescence; filed as Kd, often an IC50 or EC50 that approximates it; ≥ and ≤ were set here for values at or beyond the usual limits of such assays
[26] = target: HLA-A*02:01; assay: as above
[27] = target: HLA-A*11:01; assay: as above
[28] = target: HLA-A*24:02; assay: as above
[29] = target: HLA-A*26:01; assay: as above
[30] = target: HLA-A*31:01; assay: as above
[31] = target: HLA-A*69:01; assay: as above
[32] = target: HLA-B*07:02; assay: as above
[33] = target: HLA-B*15:01; assay: as above
[34] = target: HLA-B*15:09; assay: as above; conditions: source organism: Influenza A virus(A/swine/Henan/8/2004(H9N2))
[35] = target: HLA-B*18:01; assay: as above
[36] = target: HLA-B*27:05; assay: as above
[37] = target: HLA-B*40:01; assay: as above
[38] = target: HLA-B*44:02; assay: as above
[39] = target: HLA-B*46:01; assay: as above
[40] = target: HLA-B*58:01; assay: as above
[41] = target: HLA-B*48:01; assay: IEDB peptide-MHC binding, purified MHC/competitive/fluorescence; filed as Kd, often an IC50 or EC50 that approximates it; ≥ and ≤ were set here for values at or beyond the usual limits of such assays
[42] = target: HLA-B*40:01; assay: as above
[43] = target: HLA-B*08:02; assay: IEDB peptide-MHC binding, purified MHC/direct/fluorescence; filed as Kd, often an IC50 or EC50 that approximates it; ≥ and ≤ were set here for values at or beyond the usual limits of such assays; conditions: source organism: Giardia lamblia ATCC 50803
[44] = source organism: Zaire ebolavirus
[45] = source organism: Mycobacterium tuberculosis H37Ra
[46] = source organism: Influenza A virus (A/duck/Korea/S10/03(H3N2))
[47] = source organism: Yersinia pestis Nepal516
[48] = source organism: Yellow fever virus
[49] = source organism: Giardia lamblia ATCC 50803

Sequence: ELYPGDSAH
Kd ([1]; source organism: Clostridium botulinum A str. ATCC 3502): 615 nM

Sequence: FLPADFFPSV
IC50 ([2]; source organism: Hepatitis B virus): 1.2 nM

Sequence: FRYEFTAPF
Kd [3]: ≥ 20000 nM
Kd [4]: ≥ 20000 nM
Kd [5]: ≥ 20000 nM
Kd [6]: ≥ 20000 nM
Kd ([7]; source organism: Ebola virus Yambio0403): ≥ 20000 nM
Kd [8]: ≥ 20000 nM
Kd [9, 44]: 6570 nM
Kd [10]: 209 nM
Kd [11, 44]: ≥ 20000 nM
Kd [12]: ≥ 20000 nM
Kd [13]: ≥ 20000 nM
Kd [14, 44]: 724 nM
Kd [15, 44]: 952 nM
Kd [16, 44]: 0.7 nM
Kd [17]: ≥ 20000 nM
Kd [18]: ≥ 20000 nM
Kd [19]: ≥ 20000 nM

Sequence: ILLFPLPSF
Kd ([1]; source organism: Entamoeba histolytica HM-1:IMSS): 2060 nM

Sequence: IMYNYPAML
Kd ([9]; source organism: Mycobacterium tuberculosis): 2680 nM
Kd ([20]; source organism: Mycobacterium leprae): 45 nM

Kd [21]: 0.3 nM
Sequence: IYPGVNHGF

Sequence: KAAGAAVAL
Kd [20, 45]: 2 nM
Kd [22, 45]: 76 nM
Kd [23]: 1770 nM

Sequence: KAWSEGLAM
Kd ([15]; source organism: Shigella boydii CDC 3083-94): 0.2 nM
Kd [24]: 458 nM

Kd ([1]; source organism: Escherichia coli APEC O1): 9.5 nM
Sequence: NLYGWHLPL

Sequence: PAHKSQLVW
Kd [25, 46]: ≥ 20000 nM
Kd [26, 46]: ≥ 20000 nM
Kd [7, 46]: ≥ 20000 nM
Kd [27, 46]: ≥ 20000 nM
Kd [28, 46]: ≥ 20000 nM
Kd ([29]; source organism: Influenza A virus(A/swine/Henan/8/2004(H9N2))): ≥ 20000 nM
Kd [30, 46]: ≥ 20000 nM
Kd [31, 46]: ≥ 20000 nM
Kd [32, 46]: ≥ 20000 nM
Kd [9, 46]: ≥ 20000 nM
Kd [33, 46]: ≥ 20000 nM
Kd [34]: ≥ 20000 nM
Kd [35, 46]: ≥ 20000 nM
Kd [36, 46]: ≥ 20000 nM
Kd [37, 46]: ≥ 20000 nM
Kd [38, 46]: ≥ 20000 nM
Kd [39, 46]: ≥ 20000 nM
Kd [40, 46]: 2210 nM

IC50 ([2]; source organism: Homo sapiens): 10000 nM
Sequence: PTLDKVLEL

Sequence: RALAYDPAL
Kd ([41]; source organism: Burkholderia mallei SAVP1): 80.8 nM

Sequence: RQGKPDWLL
Kd ([41]; source organism: Vibrio vulnificus CMCP6): 124 nM

Sequence: RQWFIDVPL
Kd ([41]; source organism: dengue virus type 2): 68.4 nM

IC50 ([2]; source organism: Homo sapiens): 40 nM
Sequence: RTLDKVLEV

Sequence: TQFGVPFVL
Kd [11, 47]: 13.5 nM
Kd [16, 47]: 0.3 nM
Kd [42, 47]: 205 nM

Sequence: TQHFGWHAF
Kd ([1]; source organism: Vibrio antiquarius): 21.4 nM

Sequence: VAIDRPAEV
Kd [20, 48]: 2 nM
Kd [22, 48]: ≤ 1 nM

Sequence: VESKNFADF
Kd ([42]; source organism: Bacillus cereus G9241): 418 nM

Sequence: VSSKKCTAL
Kd [25, 49]: ≥ 20000 nM
Kd [26, 49]: ≥ 20000 nM
Kd [7, 49]: ≥ 20000 nM
Kd [27, 49]: ≥ 20000 nM
Kd [28, 49]: ≥ 20000 nM
Kd [29, 49]: ≥ 20000 nM
Kd [30, 49]: ≥ 20000 nM
Kd [31, 49]: ≥ 20000 nM
Kd [32, 49]: ≥ 20000 nM
Kd [9, 49]: 17700 nM
Kd [43]: ≥ 20000 nM
Kd [33, 49]: ≥ 20000 nM
Kd [35, 49]: ≥ 20000 nM
Kd [36, 49]: ≥ 20000 nM
Kd [37, 49]: ≥ 20000 nM
Kd [38, 49]: ≥ 20000 nM
Kd [39, 49]: ≥ 20000 nM
Kd [40, 49]: ≥ 20000 nM

Sequence: YRWVNLASF
Kd ([14]; source organism: Mammarenavirus juninense): 98.1 nM
